Measured values: the supplement of paper PMC9112550, “Optimization of the antimicrobial peptide Bac7 by deep mutational scanning” (BMC Biology, 2022)

Test system: Escherichia coli TOP10
Test: shrunken log2 fold change of peptide-encoding DNA abundance (4.5 h post-induction vs induction); higher = less antimicrobial activity (less host growth inhibition)
Conditions: time post-induction: 4.5 h; library: site-saturation at positions 5, 18, 19, 20
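Further: peptides expressed intracellularly from a pBAD plasmid library in pooled LB shake-flask culture, induced with 0.3% L-arabinose, DNA abundance read by NGS, three biological replicates, DESeq2 with apeglm shrinkage.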

## RRIRTRPPRLPRPRPRPERAPRP
  shrunken log2 fold change: 0.55

## RRIRTRPPRLPRPRPRPERDPRP
  shrunken log2 fold change: 0.0175

## RRIRTRPPRLPRPRPRPERHPRP
  shrunken log2 fold change: -0.0333

## RRIRTRPPRLPRPRPRPESCPRP
  shrunken log2 fold change: 0.145

## RRIRTRPPRLPRPRPRPESEPRP
  shrunken log2 fold change: -0.0433

## RRIRTRPPRLPRPRPRPETDPRP
  shrunken log2 fold change: -0.0144

## RRIRTRPPRLPRPRPRPETEPRP
  shrunken log2 fold change: -0.016

## RRIRTRPPRLPRPRPRPETGPRP
  shrunken log2 fold change: -0.00371

## RRIRTRPPRLPRPRPRPETLPRP
  shrunken log2 fold change: 0.0577

## RRIRTRPPRLPRPRPRPEVAPRP
  shrunken log2 fold change: 0.0197

## RRIRTRPPRLPRPRPRPEWFPRP
  shrunken log2 fold change: 0.0821

## RRIRTRPPRLPRPRPRPEWIPRP
  shrunken log2 fold change: 0.0842

## RRIRTRPPRLPRPRPRPEWMPRP
  shrunken log2 fold change: -0.048

## RRIRTRPPRLPRPRPRPFAFPRP
  shrunken log2 fold change: 0.0192

## RRIRTRPPRLPRPRPRPFCTPRP
  shrunken log2 fold change: -0.316

## RRIRTRPPRLPRPRPRPFDIPRP
  shrunken log2 fold change: -0.018

## RRIRTRPPRLPRPRPRPFDKPRP
  shrunken log2 fold change: -0.154

## RRIRTRPPRLPRPRPRPFDNPRP
  shrunken log2 fold change: -1.32

## RRIRTRPPRLPRPRPRPFDVPRP
  shrunken log2 fold change: -0.243

## RRIRTRPPRLPRPRPRPFEHPRP
  shrunken log2 fold change: -0.32

## RRIRTRPPRLPRPRPRPFEIPRP
  shrunken log2 fold change: 0.0711

## RRIRTRPPRLPRPRPRPFFEPRP
  shrunken log2 fold change: 0.123

## RRIRTRPPRLPRPRPRPFGKPRP
  shrunken log2 fold change: -0.00963

## RRIRTRPPRLPRPRPRPFGLPRP
  shrunken log2 fold change: 0.0236

## RRIRTRPPRLPRPRPRPFHSPRP
  shrunken log2 fold change: -0.137

## RRIRTRPPRLPRPRPRPFKLPRP
  shrunken log2 fold change: -0.0476

## RRIRTRPPRLPRPRPRPFKMPRP
  shrunken log2 fold change: -0.184

## RRIRTRPPRLPRPRPRPFKRPRP
  shrunken log2 fold change: 0.122

## RRIRTRPPRLPRPRPRPFLFPRP
  shrunken log2 fold change: -0.303

## RRIRTRPPRLPRPRPRPFMHPRP
  shrunken log2 fold change: -0.547

## RRIRTRPPRLPRPRPRPFPQPRP
  shrunken log2 fold change: -0.042

## RRIRTRPPRLPRPRPRPFQIPRP
  shrunken log2 fold change: -0.103

## RRIRTRPPRLPRPRPRPFRQPRP
  shrunken log2 fold change: 0.0156

## RRIRTRPPRLPRPRPRPFSAPRP
  shrunken log2 fold change: 0.0716

## RRIRTRPPRLPRPRPRPFTTPRP
  shrunken log2 fold change: -0.0286

## RRIRTRPPRLPRPRPRPFVIPRP
  shrunken log2 fold change: -0.488

## RRIRTRPPRLPRPRPRPGCIPRP
  shrunken log2 fold change: -0.22

## RRIRTRPPRLPRPRPRPGCRPRP
  shrunken log2 fold change: 0.235

## RRIRTRPPRLPRPRPRPGEAPRP
  shrunken log2 fold change: 0.282

## RRIRTRPPRLPRPRPRPGELPRP
  shrunken log2 fold change: -0.108

## RRIRTRPPRLPRPRPRPGFWPRP
  shrunken log2 fold change: 0.199

## RRIRTRPPRLPRPRPRPGHCPRP
  shrunken log2 fold change: -0.0671

## RRIRTRPPRLPRPRPRPGHEPRP
  shrunken log2 fold change: 0.0552

## RRIRTRPPRLPRPRPRPGHQPRP
  shrunken log2 fold change: -0.199

## RRIRTRPPRLPRPRPRPGHYPRP
  shrunken log2 fold change: -0.137

## RRIRTRPPRLPRPRPRPGIRPRP
  shrunken log2 fold change: -0.0147

## RRIRTRPPRLPRPRPRPGKQPRP
  shrunken log2 fold change: -0.184

## RRIRTRPPRLPRPRPRPGKYPRP
  shrunken log2 fold change: -0.755

## RRIRTRPPRLPRPRPRPGMYPRP
  shrunken log2 fold change: -0.3

## RRIRTRPPRLPRPRPRPGNTPRP
  shrunken log2 fold change: -0.0393

## RRIRTRPPRLPRPRPRPGQKPRP
  shrunken log2 fold change: 0.0923

## RRIRTRPPRLPRPRPRPGQPPRP
  shrunken log2 fold change: 0.161

## RRIRTRPPRLPRPRPRPGRRPRP
  shrunken log2 fold change: 0.244

## RRIRTRPPRLPRPRPRPGTSPRP
  shrunken log2 fold change: -0.043

## RRIRTRPPRLPRPRPRPGVPPRP
  shrunken log2 fold change: 0.202

## RRIRTRPPRLPRPRPRPGVWPRP
  shrunken log2 fold change: 0.631

## RRIRTRPPRLPRPRPRPGWAPRP
  shrunken log2 fold change: 0.622

## RRIRTRPPRLPRPRPRPGYHPRP
  shrunken log2 fold change: -0.315

## RRIRTRPPRLPRPRPRPHCIPRP
  shrunken log2 fold change: -0.489

## RRIRTRPPRLPRPRPRPHDWPRP
  shrunken log2 fold change: 0.213

## RRIRTRPPRLPRPRPRPHFMPRP
  shrunken log2 fold change: -0.339

## RRIRTRPPRLPRPRPRPHFQPRP
  shrunken log2 fold change: -0.294

## RRIRTRPPRLPRPRPRPHGYPRP
  shrunken log2 fold change: -0.267

## RRIRTRPPRLPRPRPRPHHMPRP
  shrunken log2 fold change: -0.321

## RRIRTRPPRLPRPRPRPHHVPRP
  shrunken log2 fold change: 0.0387

## RRIRTRPPRLPRPRPRPHHYPRP
  shrunken log2 fold change: -0.46

## RRIRTRPPRLPRPRPRPHINPRP
  shrunken log2 fold change: -0.454

## RRIRTRPPRLPRPRPRPHLAPRP
  shrunken log2 fold change: 0.159

## RRIRTRPPRLPRPRPRPHLMPRP
  shrunken log2 fold change: -0.139

## RRIRTRPPRLPRPRPRPHMMPRP
  shrunken log2 fold change: -0.586

## RRIRTRPPRLPRPRPRPHNDPRP
  shrunken log2 fold change: -1.58

## RRIRTRPPRLPRPRPRPHNVPRP
  shrunken log2 fold change: -0.141

## RRIRTRPPRLPRPRPRPHNYPRP
  shrunken log2 fold change: -0.329

## RRIRTRPPRLPRPRPRPHPHPRP
  shrunken log2 fold change: 0.0583

## RRIRTRPPRLPRPRPRPHPTPRP
  shrunken log2 fold change: 0.106

## RRIRTRPPRLPRPRPRPHSQPRP
  shrunken log2 fold change: -0.101

## RRIRTRPPRLPRPRPRPHTHPRP
  shrunken log2 fold change: -0.873

## RRIRTRPPRLPRPRPRPHTWPRP
  shrunken log2 fold change: -0.281

## RRIRTRPPRLPRPRPRPHVAPRP
  shrunken log2 fold change: 0.268

## RRIRTRPPRLPRPRPRPHVDPRP
  shrunken log2 fold change: 0.0574

## RRIRTRPPRLPRPRPRPHVKPRP
  shrunken log2 fold change: -0.126

## RRIRTRPPRLPRPRPRPHYMPRP
  shrunken log2 fold change: -0.476

## RRIRTRPPRLPRPRPRPHYPPRP
  shrunken log2 fold change: -0.782

## RRIRTRPPRLPRPRPRPIASPRP
  shrunken log2 fold change: -0.0997

## RRIRTRPPRLPRPRPRPICRPRP
  shrunken log2 fold change: 0.0229

## RRIRTRPPRLPRPRPRPIEMPRP
  shrunken log2 fold change: -0.25

## RRIRTRPPRLPRPRPRPIEYPRP
  shrunken log2 fold change: -0.233

## RRIRTRPPRLPRPRPRPIGVPRP
  shrunken log2 fold change: -0.0262

## RRIRTRPPRLPRPRPRPIIDPRP
  shrunken log2 fold change: -0.000898

## RRIRTRPPRLPRPRPRPIINPRP
  shrunken log2 fold change: -0.0706

## RRIRTRPPRLPRPRPRPILAPRP
  shrunken log2 fold change: 0.00499

## RRIRTRPPRLPRPRPRPILKPRP
  shrunken log2 fold change: -0.348

## RRIRTRPPRLPRPRPRPIMAPRP
  shrunken log2 fold change: -0.281

## RRIRTRPPRLPRPRPRPIMFPRP
  shrunken log2 fold change: -0.937

## RRIRTRPPRLPRPRPRPIMRPRP
  shrunken log2 fold change: 0.25

## RRIRTRPPRLPRPRPRPIMTPRP
  shrunken log2 fold change: -0.0418

## RRIRTRPPRLPRPRPRPIQNPRP
  shrunken log2 fold change: -0.147

## RRIRTRPPRLPRPRPRPIRGPRP
  shrunken log2 fold change: 0.074

## RRIRTRPPRLPRPRPRPIRMPRP
  shrunken log2 fold change: -0.441

## RRIRTRPPRLPRPRPRPISWPRP
  shrunken log2 fold change: -0.0406

## RRIRTRPPRLPRPRPRPIVCPRP
  shrunken log2 fold change: -0.246

## RRIRTRPPRLPRPRPRPIVIPRP
  shrunken log2 fold change: -0.054

## RRIRTRPPRLPRPRPRPIVSPRP
  shrunken log2 fold change: -0.0631

## RRIRTRPPRLPRPRPRPIYYPRP
  shrunken log2 fold change: -0.818

## RRIRTRPPRLPRPRPRPKDLPRP
  shrunken log2 fold change: 0.0246

## RRIRTRPPRLPRPRPRPKEFPRP
  shrunken log2 fold change: -0.0177

## RRIRTRPPRLPRPRPRPKFIPRP
  shrunken log2 fold change: -0.175

## RRIRTRPPRLPRPRPRPKIFPRP
  shrunken log2 fold change: -0.219

## RRIRTRPPRLPRPRPRPKLDPRP
  shrunken log2 fold change: 0.2

## RRIRTRPPRLPRPRPRPKMCPRP
  shrunken log2 fold change: 0.15

## RRIRTRPPRLPRPRPRPKMTPRP
  shrunken log2 fold change: 0.214

## RRIRTRPPRLPRPRPRPKNNPRP
  shrunken log2 fold change: -0.483

## RRIRTRPPRLPRPRPRPKNQPRP
  shrunken log2 fold change: -0.274

## RRIRTRPPRLPRPRPRPKPCPRP
  shrunken log2 fold change: -0.126

## RRIRTRPPRLPRPRPRPKPDPRP
  shrunken log2 fold change: 0.214

## RRIRTRPPRLPRPRPRPKPYPRP
  shrunken log2 fold change: -0.607

## RRIRTRPPRLPRPRPRPKVIPRP
  shrunken log2 fold change: -0.503

## RRIRTRPPRLPRPRPRPKVKPRP
  shrunken log2 fold change: 0.00985

## RRIRTRPPRLPRPRPRPKVTPRP
  shrunken log2 fold change: -0.026

## RRIRTRPPRLPRPRPRPKWAPRP
  shrunken log2 fold change: 0.0541

## RRIRTRPPRLPRPRPRPKWVPRP
  shrunken log2 fold change: 0.129

## RRIRTRPPRLPRPRPRPKWYPRP
  shrunken log2 fold change: -0.468

## RRIRTRPPRLPRPRPRPKYSPRP
  shrunken log2 fold change: -0.413

## RRIRTRPPRLPRPRPRPLAGPRP
  shrunken log2 fold change: 0.0232

## RRIRTRPPRLPRPRPRPLCFPRP
  shrunken log2 fold change: -0.326

## RRIRTRPPRLPRPRPRPLCGPRP
  shrunken log2 fold change: 0.0512

## RRIRTRPPRLPRPRPRPLCLPRP
  shrunken log2 fold change: -0.433

## RRIRTRPPRLPRPRPRPLCTPRP
  shrunken log2 fold change: -0.106

## RRIRTRPPRLPRPRPRPLEAPRP
  shrunken log2 fold change: 0.115

## RRIRTRPPRLPRPRPRPLFTPRP
  shrunken log2 fold change: -0.352

## RRIRTRPPRLPRPRPRPLGEPRP
  shrunken log2 fold change: 0.0248

## RRIRTRPPRLPRPRPRPLGMPRP
  shrunken log2 fold change: 0.257

## RRIRTRPPRLPRPRPRPLHAPRP
  shrunken log2 fold change: 0.143

## RRIRTRPPRLPRPRPRPLIHPRP
  shrunken log2 fold change: -0.552

## RRIRTRPPRLPRPRPRPLKGPRP
  shrunken log2 fold change: -0.377

## RRIRTRPPRLPRPRPRPLLEPRP
  shrunken log2 fold change: 0.024

## RRIRTRPPRLPRPRPRPLLTPRP
  shrunken log2 fold change: -0.0897

## RRIRTRPPRLPRPRPRPLMCPRP
  shrunken log2 fold change: -0.151

## RRIRTRPPRLPRPRPRPLMFPRP
  shrunken log2 fold change: -0.516

## RRIRTRPPRLPRPRPRPLMNPRP
  shrunken log2 fold change: -0.852

## RRIRTRPPRLPRPRPRPLNFPRP
  shrunken log2 fold change: -0.446

## RRIRTRPPRLPRPRPRPLNIPRP
  shrunken log2 fold change: -0.36

## RRIRTRPPRLPRPRPRPLNQPRP
  shrunken log2 fold change: -0.417

## RRIRTRPPRLPRPRPRPLPYPRP
  shrunken log2 fold change: -0.0545

## RRIRTRPPRLPRPRPRPLRFPRP
  shrunken log2 fold change: 0.742

## RRIRTRPPRLPRPRPRPLSEPRP
  shrunken log2 fold change: -0.127

## RRIRTRPPRLPRPRPRPLSKPRP
  shrunken log2 fold change: -0.22

## RRIRTRPPRLPRPRPRPLSNPRP
  shrunken log2 fold change: 0.012

## RRIRTRPPRLPRPRPRPLSRPRP
  shrunken log2 fold change: -0.45

## RRIRTRPPRLPRPRPRPLSYPRP
  shrunken log2 fold change: -0.155
